From patent US20030232387A1

Tests used:
[1] = molecular target: E-cadherin-IgG fusion protein (human) (UniProt P12830); experiment: cell adhesion assay; buffer with Ca^2+ and Mg^2+ (1 mM each)
[2] = molecular target: E-cadherin-IgG fusion protein (human) (UniProt P12830); experiment: cell adhesion assay; buffer with Ca^2+, Mg^2+ and Mn^2+ (1 mM each)
[3] = molecular target: E-cadherin-IgG fusion protein (human) (UniProt P12830); experiment: cell adhesion assay; buffer with EDTA (5 mM)
[4] = molecular target: human αEβ7 integrin expressed on cells (human) (UniProt P38570); experiment: staining of K562 αEβ7 cells, 2.5 µg/ml; Ca^2+ and Mg^2+ (1 mM each)
Chain of human αEβ7 integrin expressed on cells (human) (P38570 other isoform, or with tags, fused parts or gaps limits assumed, chain 1 of 2): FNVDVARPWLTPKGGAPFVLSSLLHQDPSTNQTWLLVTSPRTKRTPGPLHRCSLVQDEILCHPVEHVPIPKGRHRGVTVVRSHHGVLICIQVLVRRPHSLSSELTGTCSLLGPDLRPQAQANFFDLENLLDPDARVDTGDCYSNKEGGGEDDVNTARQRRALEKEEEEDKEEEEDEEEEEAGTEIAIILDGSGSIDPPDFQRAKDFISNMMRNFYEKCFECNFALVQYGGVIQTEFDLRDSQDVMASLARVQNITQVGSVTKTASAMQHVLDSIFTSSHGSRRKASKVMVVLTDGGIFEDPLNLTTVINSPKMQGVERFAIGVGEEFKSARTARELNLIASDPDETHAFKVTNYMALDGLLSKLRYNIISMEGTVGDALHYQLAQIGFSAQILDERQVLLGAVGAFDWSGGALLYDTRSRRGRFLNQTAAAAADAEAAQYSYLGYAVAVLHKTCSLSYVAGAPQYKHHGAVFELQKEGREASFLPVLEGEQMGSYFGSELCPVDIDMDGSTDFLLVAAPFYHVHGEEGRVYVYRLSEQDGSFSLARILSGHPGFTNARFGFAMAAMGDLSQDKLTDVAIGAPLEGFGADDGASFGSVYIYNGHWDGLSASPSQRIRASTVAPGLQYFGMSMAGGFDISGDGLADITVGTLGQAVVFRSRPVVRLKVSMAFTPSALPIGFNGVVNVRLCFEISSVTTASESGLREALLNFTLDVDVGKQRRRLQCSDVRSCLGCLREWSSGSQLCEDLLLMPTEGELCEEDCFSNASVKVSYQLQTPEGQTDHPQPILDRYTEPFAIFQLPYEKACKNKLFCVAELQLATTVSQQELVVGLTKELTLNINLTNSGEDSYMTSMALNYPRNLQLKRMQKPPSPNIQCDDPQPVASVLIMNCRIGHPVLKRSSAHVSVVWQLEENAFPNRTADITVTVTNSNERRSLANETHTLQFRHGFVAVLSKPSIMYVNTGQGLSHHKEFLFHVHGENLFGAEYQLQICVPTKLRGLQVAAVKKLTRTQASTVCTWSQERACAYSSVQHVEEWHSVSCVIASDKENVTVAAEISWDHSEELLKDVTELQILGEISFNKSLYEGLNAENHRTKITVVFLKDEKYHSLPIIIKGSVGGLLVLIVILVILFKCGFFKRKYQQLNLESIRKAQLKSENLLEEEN
Chain of human αEβ7 integrin expressed on cells (human) (chain, as listed by the source limits assumed, chain 2 of 2): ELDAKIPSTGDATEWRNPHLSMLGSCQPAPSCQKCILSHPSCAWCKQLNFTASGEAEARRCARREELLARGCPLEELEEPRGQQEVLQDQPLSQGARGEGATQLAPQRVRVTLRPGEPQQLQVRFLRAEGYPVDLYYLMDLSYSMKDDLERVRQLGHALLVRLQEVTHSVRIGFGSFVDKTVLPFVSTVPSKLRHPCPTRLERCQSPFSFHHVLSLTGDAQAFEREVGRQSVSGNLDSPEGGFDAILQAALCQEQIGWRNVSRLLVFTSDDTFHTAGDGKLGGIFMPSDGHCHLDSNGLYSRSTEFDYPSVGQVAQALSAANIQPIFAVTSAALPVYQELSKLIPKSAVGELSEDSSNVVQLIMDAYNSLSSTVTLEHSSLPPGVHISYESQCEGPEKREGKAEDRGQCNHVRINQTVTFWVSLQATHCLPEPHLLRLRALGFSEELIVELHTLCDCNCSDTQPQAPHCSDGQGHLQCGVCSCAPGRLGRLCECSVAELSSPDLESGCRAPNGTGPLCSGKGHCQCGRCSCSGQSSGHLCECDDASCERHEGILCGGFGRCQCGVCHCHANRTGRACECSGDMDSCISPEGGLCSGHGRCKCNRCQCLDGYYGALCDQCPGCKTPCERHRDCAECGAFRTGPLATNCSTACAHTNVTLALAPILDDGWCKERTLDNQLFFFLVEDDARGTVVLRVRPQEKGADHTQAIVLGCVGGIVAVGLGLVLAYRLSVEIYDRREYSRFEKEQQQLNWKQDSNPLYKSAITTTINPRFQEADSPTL

[5] = molecular target: human αEβ7 integrin expressed on cells (human) (UniProt P38570); experiment: staining of K562 αEβ7 cells, 5 µg/ml; Ca^2+, Mg^2+ and Mn^2+ (1 mM each)
[6] = molecular target: human αEβ7 integrin expressed on cells (human) (UniProt P38570); experiment: staining of K562 αEβ7 cells, 10 µg/ml; Ca^2+ and Mg^2+ (1 mM each)

| % cells bound to immobilized E-cadherin [1] | % cells bound to immobilized E-cadherin [2] | % cells bound to immobilized E-cadherin [3] | Binding (mean fluorescence intensity) [4] | Binding (mean fluorescence intensity) [5] | Binding (mean fluorescence intensity) [6] | Substance |
| --- | --- | --- | --- | --- | --- | --- |
| 40% | 60% | < 10% |  |  |  | human αEβ7 integrin expressed on cells (from UniProt P38570 19-1179; P26010 20-798) (receptor) |
|  |  |  | < 25 MFI | 100 MFI | 75 MFI | E-cadherin-IgG fusion protein (from UniProt P12830 155-699) (Fc fusion) |
